According to PMC6468313, “Role of Cdc23/Mcm10 in generating the ribonucleotide imprint at the mat1 locus in fission yeast” (Nucleic Acids Research, 2019):

Target: T1, GST-Cdc23 (S. pombe, UniProt O42709 1-593)
T1 construct: Cdc23/Mcm10 of S. pombe; also called GST-tagged Cdc23; source: E. coli Codon Plus, from pGEX2T, induced with 1 mM IPTG for 16 h at 18°C; ultrafilter-concentrated extract (pull-down); partially purified (far-western)
T1 sequence (looked up): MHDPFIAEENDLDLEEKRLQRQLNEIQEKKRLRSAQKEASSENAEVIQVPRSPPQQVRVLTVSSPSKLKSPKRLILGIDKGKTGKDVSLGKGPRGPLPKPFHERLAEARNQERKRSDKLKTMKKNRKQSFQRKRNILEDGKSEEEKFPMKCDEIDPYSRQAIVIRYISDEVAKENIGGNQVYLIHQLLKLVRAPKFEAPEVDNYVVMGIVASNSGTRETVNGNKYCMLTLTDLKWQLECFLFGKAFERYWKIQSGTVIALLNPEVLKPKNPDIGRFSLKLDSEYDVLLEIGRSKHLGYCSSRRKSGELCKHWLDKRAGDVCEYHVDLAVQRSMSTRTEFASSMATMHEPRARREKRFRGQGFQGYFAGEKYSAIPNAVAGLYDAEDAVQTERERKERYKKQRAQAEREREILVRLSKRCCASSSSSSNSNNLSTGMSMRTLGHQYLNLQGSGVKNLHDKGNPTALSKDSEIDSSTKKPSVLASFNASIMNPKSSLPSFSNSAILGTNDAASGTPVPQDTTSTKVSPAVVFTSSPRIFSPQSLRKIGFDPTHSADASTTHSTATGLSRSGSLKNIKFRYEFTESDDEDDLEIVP
Test: far-Western, overlay or dot blot; partially purified GST and GST-Cdc23 resolved by SDS-PAGE, blotted and progressively renatured; incubated with purified extracts from E. coli expressing MBP, MBP-Polα^+ or MBP-Polα^Swi7-1; probed with anti-Polα
Conditions: both partners purified

B1: MBP-Polα^Swi7-1 (natural protein, S. pombe, UniProt P28040 1-1405, looked up)
chain: MRKRNAGIKPSQRFAELRALRQAGKTRASTYESKENEELYDNVSEEEYRKIVRQRLDEDDFVVDDNGAGYVDNGYDEWDQSHYSDEDDENEKGSSGRKRKKSKNVLAEPNQQIGAFFKANAIQPASRIANRKNNEKEDEFMAEILGSIDQDIPERLSTKKGNRSHTTSNAKRRSQKAASSISTTNVVSSDPKKYIPETVPSTPQPASSLPIPSSPPAALETEENVDSQPMELDEPELPVGSDAPIIDVEESIAMKPLMSHDQVDDTASLSKATISQQPLSPMTPLSSELDVSAFSEINSKIKNVDVPASSYSSPISKVSPSDVTEEDGSLFFFWMDYTEMYGSLCLFGKVYDKATKQYVSCFLKVDGIMRSLYFLPRPSSSSVSEDSIAAQTKDVYDEVANLLSKRGVKEWKSRVSKYKYAFELEDVPRTADYLEVIYSYSYPALPTDLTGSSFSHVFGTNTALFEQFVLSRRVMGPCWLKIQQPNFDAVKNASWCRVEIGCSSPQNISVSFEKNEITSKTPPMTVMSLAFRTLINKEQNKQEVVMISARIFENVDIEKGLPANDMPSYSFSLIRPLKQIFPNGFEKLARQHKSSIFCERSEVSLLNNFLNKVRTYDPDVYFGHDFEMCYSVLLSRLKERKIHNWSSIGRLRRSEWPRSFNRSSQQFVEKQIIAGRLMCDLSNDFGRSMIKAQSWSLSEIVLKELDIKRQDINQEKALQSWTDTAHGLLDYLVHCEIDTFFIAAVAFKIQMLQLSKNLTNIAGNSWARTLTGTRAERNEYILLHEFKKNGYIVPDKQQSIRRHAEAFGAEDGLQEESLGKKKDKYKGGLVFEPQKGLYETCILVMDFNSLYPSIIQEYNICFTTVDRSPSNSDSDDQIPDTPSASANQGIFPRLIANLVERRRQIKGLLKDNSATPTQRLQWDIQQQALKLTANSMYGCLGYTKSRFYARPLAVLITYKGREALMNTKELADQMGLQVIYGDTDSVMLNTNVTDKNHALRIGNEFKEKVNERYSKLEIDIDNVYQRMLLHAKKKYAALQLDSQGKPNLDVKGLDMKRREFCTLAKEASKFCLDQILSGELTETVIENIHSYLMDFSEKMRNGKFPANKFIIFNRLEKNPEDYPNGKTMPFVQVALKKKARGENVRVGDVIPFIIAGSDADGHPADRAYSPQEIMNTNSTLVIDYNYYLSHQILPPIERVIAPIEGTNRARLAECLGLDARKYYSHETSESSAFQRYESTLTDDQCFINVSPLLLKCPSCNATSFSLRSVKSLKETLYANTVECDCGYEYSDFTIILQFSSQLRDFINLYYEGILVCDDSSCGNRTRQMSVYGKRCCNKSCRGSVHFEYNDEQLYNQIKFLLKAVQTTTGATRNGIIRCNAINKNISRIMNKNAREFVDMGLIFSS
notes: catalytic subunit of DNA polymerase α (Swi7) of S. pombe with the swi7-1 mutation G1116E; also called MBP-tagged swi7-1/polα; Polα^7-1; source: E. coli, from pMALp2, induced with 1 mM IPTG for 8 h at 25°C; purified on amylose resin (far-western)
For B1, the “fold weaker interaction than with Polα^+” value was about 3 fold.
